Reference: patent US20240174727A1, “LONG-ACTING NATRIURETIC PEPTIDES AND USES THEREOF” (Eli Lilly and Company, priority 2022, published 2024)
Numbered stars: 1 amine (or outer) side, 2 acyl side, 3 side chain; on linkers, the order of the positions; unused ones are H or OH. Bridge positions count the residues as written; N and C are the ends. Square brackets hold non-standard residues; d marks the D form. Primed or numbered codes have the meaning given here. * marks the point of attachment. thioacetal = thioacetal linkage between two cysteines (intrachain bond at the bracketed Cys); C20 diacid = O=C(O)CCCCCCCCCCCCCCCCCCC(=O)*; C16 diacid = O=C(O)CCCCCCCCCCCCCCC(=O)*; γGlu = O=C(O)[C@H](CCC(=O)[*:2])N[*:1]; 4Pal = N[C@@H](Cc1ccncc1)C(=O)O; thioacetal″ = not defined here; Aib = CC(C)(N)C(=O)O; βAla = NCCC(=O)O

T1: human NPRA (human, UniProt P16066 33-1061)
T1 sequence (looked up): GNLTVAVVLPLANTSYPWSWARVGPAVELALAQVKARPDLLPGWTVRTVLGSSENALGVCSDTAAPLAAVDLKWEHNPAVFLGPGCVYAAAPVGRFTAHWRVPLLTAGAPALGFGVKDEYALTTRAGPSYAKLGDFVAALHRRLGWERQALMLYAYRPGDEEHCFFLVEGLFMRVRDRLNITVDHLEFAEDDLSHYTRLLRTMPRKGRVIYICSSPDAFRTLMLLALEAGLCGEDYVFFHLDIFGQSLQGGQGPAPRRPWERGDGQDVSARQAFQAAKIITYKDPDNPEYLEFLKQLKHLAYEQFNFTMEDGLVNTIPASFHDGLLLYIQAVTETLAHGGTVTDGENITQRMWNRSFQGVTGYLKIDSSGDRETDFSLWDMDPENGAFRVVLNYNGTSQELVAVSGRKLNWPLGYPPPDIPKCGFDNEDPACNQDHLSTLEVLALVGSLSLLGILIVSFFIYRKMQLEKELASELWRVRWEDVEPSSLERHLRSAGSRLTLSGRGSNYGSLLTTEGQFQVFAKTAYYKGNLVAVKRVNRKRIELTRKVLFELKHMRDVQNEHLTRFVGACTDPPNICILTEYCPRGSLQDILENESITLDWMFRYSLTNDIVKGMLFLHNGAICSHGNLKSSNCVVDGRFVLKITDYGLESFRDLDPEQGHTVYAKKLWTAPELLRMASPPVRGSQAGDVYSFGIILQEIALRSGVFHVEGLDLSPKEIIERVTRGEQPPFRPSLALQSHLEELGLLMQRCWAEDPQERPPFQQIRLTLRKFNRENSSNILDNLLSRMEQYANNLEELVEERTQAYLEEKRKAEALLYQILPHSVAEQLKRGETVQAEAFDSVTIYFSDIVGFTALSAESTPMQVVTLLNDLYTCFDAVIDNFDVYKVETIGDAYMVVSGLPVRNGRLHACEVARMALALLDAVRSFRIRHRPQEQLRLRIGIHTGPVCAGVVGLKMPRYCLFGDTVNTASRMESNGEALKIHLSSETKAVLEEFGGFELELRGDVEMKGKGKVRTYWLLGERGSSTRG

T2: rat NPRA (rat, UniProt P18910 29-1057)
T2 sequence (looked up): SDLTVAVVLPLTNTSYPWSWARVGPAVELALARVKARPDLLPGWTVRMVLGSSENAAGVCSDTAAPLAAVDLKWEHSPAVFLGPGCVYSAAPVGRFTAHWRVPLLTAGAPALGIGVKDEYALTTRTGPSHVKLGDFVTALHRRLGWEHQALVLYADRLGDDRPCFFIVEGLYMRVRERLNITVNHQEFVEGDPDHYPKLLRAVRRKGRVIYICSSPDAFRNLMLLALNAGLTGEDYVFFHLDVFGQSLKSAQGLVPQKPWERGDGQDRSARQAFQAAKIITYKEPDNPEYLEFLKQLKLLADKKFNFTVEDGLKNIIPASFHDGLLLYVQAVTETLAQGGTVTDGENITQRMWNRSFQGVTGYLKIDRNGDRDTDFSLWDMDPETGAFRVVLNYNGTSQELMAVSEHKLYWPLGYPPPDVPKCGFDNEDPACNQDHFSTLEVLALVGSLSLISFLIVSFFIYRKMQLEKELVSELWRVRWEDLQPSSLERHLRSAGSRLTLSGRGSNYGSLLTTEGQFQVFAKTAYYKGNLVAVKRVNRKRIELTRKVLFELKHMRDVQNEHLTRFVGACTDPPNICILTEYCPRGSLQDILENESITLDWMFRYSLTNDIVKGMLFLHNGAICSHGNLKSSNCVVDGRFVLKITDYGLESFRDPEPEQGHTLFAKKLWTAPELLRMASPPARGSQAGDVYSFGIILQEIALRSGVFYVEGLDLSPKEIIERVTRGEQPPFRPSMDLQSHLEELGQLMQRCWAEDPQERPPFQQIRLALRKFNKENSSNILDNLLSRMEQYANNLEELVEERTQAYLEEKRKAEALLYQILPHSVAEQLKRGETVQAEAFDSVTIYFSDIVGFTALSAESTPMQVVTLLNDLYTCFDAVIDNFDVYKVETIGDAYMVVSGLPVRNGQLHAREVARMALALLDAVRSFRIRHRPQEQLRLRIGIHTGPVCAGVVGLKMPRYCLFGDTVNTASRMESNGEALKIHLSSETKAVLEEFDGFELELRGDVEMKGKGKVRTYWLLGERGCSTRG

B1: Example 75 (peptide)
peptide: SXRRSSCFGGRIDRIGHQSGLGCPSFRHGGKSSGAPPPS
modifications: HOOC-(CH2)18-CO-(γGlu)-EKEKEKG-PEG24-S-4Pal-RRSS[CFGGRIDRIGHQSGLGC]PSFRHGGKSSGAPPPS-NH2; thioacetal linkage between the bracketed Cys
B2: Example 91 (peptide)
peptide: SXRRSSCFGGRIDRIGHYSGLGCPSFRHGGKSSGAPPPS
modifications: HOOC-(CH2)18-CO-(γGlu)-EKEKEKG-(AEEA)8-S-4Pal-RRSS[CFGGRIDRIGHYSGLGC]PSFRHGGKSSGAPPPS-NH2; thioacetal linkage between the bracketed Cys
B3: Example 92 (peptide)
peptide: SXRRSSCFGGRIDRIGHYSGLGCPSFRHGGKSSGAPPPS
modifications: HOOC-(CH2)18-CO-(γGlu)-EKEKEKG-(AEEA)6-S-4Pal-RRSS[CFGGRIDRIGHYSGLGC]PSFRHGGKSSGAPPPS-NH2; thioacetal linkage between the bracketed Cys
B4: Example 82 (peptide)
peptide: SXRRSSCFGGRIDRIGHQSGLGCPSFRHGGKSSGAPPPS
modifications: HOOC-(CH2)18-CO-(γGlu)-EKEKEKG-PEG12-S-4Pal-RRSS[CFGGRIDRIGHQSGLGC]PSFRHGGKSSGAPPPS-NH2; thioacetal linkage between the bracketed Cys
B5: Example 86 (peptide)
peptide: SXRRSSCFGGRIDRIGHQSGLGCPSFRHGGKSSGAPPPS
modifications: HOOC-(CH2)18-CO-(γGlu)-EKEKEKG-(AEEA)6-S-4Pal-RRSS[CFGGRIDRIGHQSGLGC]PSFRHGGKSSGAPPPS-NH2; thioacetal linkage between the bracketed Cys

Tests used:
human NPRA = molecular target: T1, human NPRA; assay: cell-based or functional assay
rat NPRA = molecular target: T2, rat NPRA; assay: cell-based or functional assay

Binder	cGMP Assay (EC50, pM) w/BSA (human NPRA) [pM]	cGMP Assay (EC50, pM) w/Casein (human NPRA) [pM]	cGMP Assay (EC50, pM) w/BSA (rat NPRA) [pM]	cGMP Assay (EC50, pM) w/Casein (rat NPRA) [pM]
{C20 diacid}-[γGlu]EKEKEKGS[4Pal]RRSSCFGKRIDRIGHYSGLGCPSFRHGGKSSGAPPPS-NH2 (bridge 15-31 via thioacetal″; reading uncertain) [Example 81]	5710	388	127000	1910
{C20 diacid}-[γGlu]EKEKEKGS[4Pal]RRSSCFGGRIDRIGHQSGLGCPSFRHGGKSSGAPPPS-NH2 (bridge 15-31 via thioacetal) [Example 72]	46400	588	1.07e+06	40500
{C20 diacid}-[γGlu]EKEKEKGS[4Pal]RRSSCFGKRIDRIGHQSGLGCPSFRHGGKSSGAPPPS-NH2 (bridge 15-31 via thioacetal) [Example 79]	4580	273	261000	3440
{C16 diacid}-[γGlu]EKEKEKGEK[βAla]RSSCFGGRIDRIGHYSGLGCPSFRHGGKSSGAPPPS-NH2 (bridge 15-31 via thioacetal) [Example 73]	5820	1230	76400	26000
{C20 diacid}-[γGlu]EKEKEKGS[4Pal]RRSSCFGGRIDRIGHQSGLGCPSFRHGGPPS[Aib]KPPPK-NH2 (bridge 15-31 via thioacetal) [Example 71]		594	594000	21000
B1	17000	1060	533000	23800
B2	13900	1000	549000	16200
B3	10100	772	290000	12400
B4	32600	623	836000	25400
B5	25200	1020	868000	17900
